Reference: patent publication US7419670B2, “Method of treating arthritis with SERP-1 and an immunosuppressant” (Viron Therapeutics, Inc., priority 2000, dated 2008)

Tests used:
[1] = system: Collagen-induced Arthritis (CIA) in Rats; test: CIA in rats: blinded radiographic scoring of the ankle joint at study termination; type: in vivo, rats (Louvain); settings: mean ± SD; control group 4.27±1.68; p=0.02
Description: Twenty four rats (Louvain) weighing 125-150 g were housed at the UCLA vivarium facility and were fed standard laboratory chow and water.
Type II collagen, (CII) was prepared by pepsin treatment of chick sternal cartilage or was purchased from Genzyme (Boston, Mass.). Rats were anesthetized with ether and were immunized intradermally at several sites on the back, with 0.5 mg native CII solubilized in 0.1M acetic acid and emulsified in FIA (Difco, Detroit, Mich.). The signs and symptoms of rheumatoid arthritis developed over a period of ten days after immunization with collagen. (Oliver and Brahn, (1996) J. Rheumatol. 23, S44-56-60, incorporated herein by reference).
Cyclosporin at (4 mg/kg/d; sc) was administered by osmotic pump for the duration of the study. […]
The incidence and severity of chronic arthritis in SERP-1/CsA treated and untreated rats was evaluated via a number of study endpoints. During the experimental phase of the study, the individual hind limbs of each rat was evaluated daily and arthritis severity was quantified by assigning a score (0=normal, 4=maximum/hindpaw) based on increasing levels of swelling and periarticular erythema. The daily, arthritic severity scores for each rat were recorded from disease onset (day 10) until study termination (Table 1). […]

[2] = system: intimal fatty cellular proliferation associated with restenosis; settings: rabbits following balloon angioplasty; cited from earlier work

B1: SERP-1: viral serine protease inhibitor produced by malignant rabbit fibroma virus and myxoma virus; sequence of SEQ ID NO: 1 (protein, listed as Myxoma virus)
chain: MKYLVLVLCLTSCACRDIGLWTFRYVYNESDNVVFSPYGLTSALSVLRIAAGGNTKREIDVPESVVEDSDAFLALRELFVDASVPLRPEFTAEFSSRFNTSVQRVTFNSENVKDVINSYVKDKTGGDVPRVLDASLDRDTKMLLLSSVRMKTSWRHVFDPSFTTDQPFYSGNVTYKVRMMNKIDTLKTETFTLRNVGYSVTELPYKRRQTAMLLVVPDDLGEIVRALDLSLVRFWIRNMRKDVCQVVMPKFSVESVLDLRDALQRLGVRDAFDPSRADFGQASPSNDLYVTKVLQTSKIEADERGTTASSDTAITLIPRNALTAIVANKPFMFLIYHKPTTTVLFMGTITKGEKVIYDTEGRDDVVSSV
- joint erosions (radiographic score) [1]: 2.58±1.88
- intimal fatty cellular proliferation associated with restenosis [2]: decrease
